Laboratory results: paper PMC10071783 (Journal of Nuclear Medicine, 2023)
Like-named read-outs stand apart in the source and are kept apart here.

Experiments:
[1] = set-up: method as in PMID 33772332; settings: 148 kBq; cited from earlier work
[2] = Serum stability in human serum at 37°C by ITLC; format: in vitro ADME; settings: for remaining at 240 h, 370 kBq/mL: human serum (EMD Millipore), pH 7.4, 370 kBq in 1 mL, up to 10 d, read-out ITLC, read-out: intact conjugate remaining in human serum; for stability in human serum: ITLC
Method: Radiochelate was diluted to 370 kBq in 1 mL of human serum and placed on an Eppendorf ThermoMixer set to 37°C. At fixed intervals, aliquots were removed from the reactions and analyzed by ITLC as described in the supplemental information.

[3] = set-up: method as in PMID 33772332; settings: cited from earlier work
[4] = Biodistribution in mice bearing subcutaneous H69 tumor xenografts; format: in vivo; settings: female, NCI Athymic NCr-nu/nu, mouse, 37 kBq, total radioactivity; for tissue uptake at 4 h: 4 h after injection, read-out: kidney percentage injected activity per gram of tissue; for tissue uptake at 2 h: 2 h after injection; for tissue uptake at 2 h / tissue uptake at 24 h: H69 xenograft mice, n = 3, read-out: tumor uptake, percentage injected activity per gram of tissue; for tissue uptake at 24 h: 24 h after injection
Method: All procedures and animal studies followed a protocol approved by the National Institutes of Health Institutional Animal Care and Use Committee (protocol ROB104). Female athymic homozygous nude mice (NCI Athymic NCr-nu/nu strain 553; Charles River Laboratories), 8–10 wk old, were subcutaneously engrafted with 8 × 10^6 H69 cells in 200 μL of ice-cold phosphate-buffered saline. Treatment of tumors with radiotracers for biodistribution or therapy studies was performed once palpable tumors developed, approximately 1 mo after inoculation. […] Full experimental details for the biodistribution experiments are reported in the supplemental information.
(C) Corresponding tumor-to-tissue ratios for selected organs with lysine pretreatment. Full 12-organ biodistribution data are reported in Supplemental Figures 8–11. Error bars represent SD. ***P < 0.005. […]. %IA/g = percentage injected activity per gram of tissue.

H69 lung NET xenografts = assay: Head-to-head therapy study in mice engrafted with H69 cells; format: in vivo; settings: 46.3 kBq
Method: Animals engrafted with H69 cells were treated with either of the 2 radioconjugates or saline (n = 8–10, each). Local control and survival were the primary outcomes. All groups were tracked for humane endpoints including, but not limited to, tumors larger than 2,000 mm^3 and weight loss greater than 20%.
FIGURE 5. […] (A) Tumor volume measurements over time. Solid lines represent average volume, and dashed lines represent 95% CI. Plots for each dataset are discontinued after first mouse death due to excessive tumor volume. Full tumor volume measurements for study duration for each mouse are reported in Supplemental Figures 15–17. (B) Maximal response to treatment (tumor volume growth percentage) of individual mice. Nonresponding mice are represented as full tumor growth (2,000% increase). (C) Mouse survival over time. Endpoint was defined as tumor volume > 2,000 mm^3 or weight loss over 20% of starting weight. (D) Average mouse body weights over time for each treatment group. Error bars represent SD. ***P < 0.005. *P < 0.05.

[5] = Dose-finding study in mice bearing H69 tumor xenografts; format: in vivo; settings: D-lysine pretreatment
From the text: The promising biodistribution profile of ^225Ac-MACROPATATE led us to investigate its therapeutic efficacy. […] All mice in the 148-kBq treatment group (10/10) and 1 of 3 mice in the 92.3-kBq group were euthanized within 10 d of treatment because of substantial weight loss (>20%).

[6] = 8 d; cited from earlier work
Method: DOTA and its derivatives are used to chelate ^225Ac and many of the previously mentioned radionuclides. However, to chelate ^225Ac with DOTA to yield high-specific-activity radioconjugates, temperatures above 70°C are typically required. Even if these temperatures are used, the resulting complex’s thermodynamic stability ([19]) and labeling kinetics are suboptimal ([20]).

Compound | tolerability in mice [1] | remaining at 240 h, 370 kBq/mL [2] | stability in human serum [2] | intact 225Ac-DOTATATE after 10 d [3] | tissue uptake at 4 h ([4]; kidney, after D-lysine administration (35 mg/mouse)) | tissue uptake at 4 h ([4]; kidney, without D-lysine) | tissue uptake at 2 h ([4]; tumor) | tissue uptake at 24 h ([4]; tumor) | duration of initial reduction in tumor volume after treatment (H69 lung NET xenografts) | mice whose tumors subsequently relapsed (H69 lung NET xenografts) | median survival (H69 lung NET xenografts; H69 xenograft mice, n = 8-10, vehicle 26 d, log rank P = 0.0006) | mice euthanized within 10 d of treatment because of substantial weight loss (>20%) ([5]; 92.3-kBq group) | mice euthanized within 10 d of treatment because of substantial weight loss (>20%) ([5]; 148-kBq treatment group) | tissue uptake at 2 h ([4]; in vivo) | tissue uptake at 4 h ([4]; in vivo, after D-lysine administration (35 mg/mouse)) | tissue uptake at 4 h ([4]; in vivo, without D-lysine) | tissue uptake at 24 h ([4]; in vivo) | stability in C57BL6 mice compared with 225Ac-DOTA [6] | stability in human serum compared with 225Ac-DOTA [6]
C[C@@H](O)[C@H](NC(=O)[C@@H]1CSSC[C@H](NC(=O)[C@@H](Cc2ccccc2)NC(=O)CN2CCN(CC(=O)O)CCN(CC(=O)O)CCN(CC(=O)O)CC2)C(=O)N[C@@H](Cc2ccc(O)cc2)C(=O)N[C@H](Cc2c[nH]c3ccccc23)C(=O)N[C@@H](CCCCN)C(=O)N[C@@H]([C@@H](C)O)C(=O)N1)C(=O)O [^225Ac-DOTATATE, metal not drawn, reference compound] | well tolerated | 95% | stable to 10 d | 90% | 3.1 %ID/g | 6 %ID/g | 5 %ID/g | 2 %ID/g |  |  |  |  |  |  |  |  |  |  | 
C[C@@H](O)[C@H](NC(=O)[C@@H]1CSSC[C@H](NC(=O)[C@@H](Cc2ccccc2)NC(=S)Nc2cc(CN3CCOCCOCCN(Cc4cccc(C(=O)O)n4)CCOCCOCC3)nc(C(=O)O)c2)C(=O)N[C@@H](Cc2ccc(O)cc2)C(=O)N[C@H](Cc2c[nH]c3ccccc23)C(=O)N[C@@H](CCCCN)C(=O)N[C@@H]([C@@H](C)O)C(=O)N1)C(=O)O [^225Ac-MACROPATATE, metal not drawn] |  | 98% | stable to 10 d |  |  |  |  |  | approximately 3 wk | 7 of 8 | 55 days | 1 of 3 | 10/10 | 9 %ID/g | 5.2 %ID/g | 11.5 %ID/g | 4 %ID/g |  | 
O=C([O-])c1cccc(CN2CCOCCOCCN(Cc3cccc(C(=O)[O-])n3)CCOCCOCC2)n1.[225Ac+3] [^225Ac-MACROPA] |  |  |  |  |  |  |  |  |  |  |  |  |  |  |  |  |  | comparable stability | comparable stability
